Laboratory results taken from patent publication US20220096594A1 (University of Texas, published 2022).
Bridge positions count the residues as written; N and C are the ends. Square brackets hold non-standard residues; d marks the D form. Primed or numbered codes have the meaning given here. Ends that are not written are not given here. * marks the point of attachment. DSG″ = disuccinimidyl glutarate, a bis-NHS cross-linker that leaves a glutaryl bridge between two amines; DSG(3) = disuccinimidyl glutarate, bis-NHS cross-linker leaving a glutaryl bridge between two amines; puromycin = COc1ccc(C[C@H](N*)C(=O)N[C@H]2[C@@H](O)[C@H](n3cnc4c(N(C)C)ncnc43)O[C@@H]2CO)cc1; DSG = disuccinimidyl glutarate; NMeA = CN[C@@H](C)C(=O)O; mRNA = not defined here

Key:
[1] = biological target: LC3 (as used in surface plasmon resonance) (human, UniProt Q9H492 1-120); test: surface plasmon resonance
[2] = biological target: T1, His6-LC3A, biotinylated and immobilized on streptavidin agarose (human, UniProt Q9H492 1-121, chemically biotinylated (sites not given)); test: radiolabeled peptide fusion incubated with immobilized LC3A
T1 construct: the species is not restated for this construct; The tag is placed at the N-terminus only because of the name His6-LC3A; also called immobilized LC3A; immobilized LC3; not shown: His6 tag

| Binder | Kd [1] [µM] | fold improvement of the apparent dissociation constant relative to SUPR4B [1] [fold] | % of radiolabeled peptide-fusions bound to immobilized LC3 [2] [%] |
| --- | --- | --- | --- |
| MWPHRVTA[NMeA]K (bridge N-10 via DSG, Phenylalanine-to-tryptophan variant of SUPR 4B at position 2) [SUPR 4B1W] | 30 | ~10 |  |
| MFSHRVTL[NMeA]K (bridge N-10; not fully specified (C-terminus, bridges); also: radiolabeled) [Clone 25C radiolabeled mRNA-peptide fusion] |  |  | 13 |
| MFPHRVTA[NMeA]K (bridge N-10; not fully specified (C-terminus, bridges); also: radiolabeled, Tested as an individual in vitro translated peptide fusion from the SUPR mRNA display selection; also called Peptide 4B) [Clone 4B radiolabeled mRNA-peptide fusion] |  |  | 86 |
| MYARSLRD[NMeA]K (bridge N-10; not fully specified (C-terminus, bridges); also: radiolabeled) [Clone 25A radiolabeled mRNA-peptide fusion] |  |  | 6 |
| MNARSLRD[NMeA]K (bridge N-10; not fully specified (C-terminus, bridges); also: radiolabeled) [Clone 25F radiolabeled mRNA-peptide fusion] |  |  | 5 |
| MFPHRVTA[NMeA]K (bridge N-10 via DSG″, It is kept apart from the mRNA-peptide fusion m1; also called Clone 4B) [SUPR 4B (synthesized cyclic peptide)] | 291 |  |  |
| MLSDIPVNDK-{puromycin-mRNA} (bridge N-10 via DSG(3); reading uncertain; also: radiolabeled) [Clone 4E radiolabeled mRNA-peptide fusion] |  |  | 7 |
